Read-outs that look alike come from different tables or passages of the source.
T1: human OX40 (human, UniProt P43489 29-216)
T1 construct: also called hOX40
T1 sequence (looked up): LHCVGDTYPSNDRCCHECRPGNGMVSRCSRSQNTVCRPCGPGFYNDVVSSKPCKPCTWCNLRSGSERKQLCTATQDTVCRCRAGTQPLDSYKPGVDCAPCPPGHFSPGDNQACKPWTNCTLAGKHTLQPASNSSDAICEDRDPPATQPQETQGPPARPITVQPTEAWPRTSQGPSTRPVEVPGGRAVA

T2: cynomolgus monkey 4-1BB (SPR analyte) (cynomolgus monkey, UniProt A9YYE7 24-186)
T2 construct: also called cy4-1BB
T2 sequence: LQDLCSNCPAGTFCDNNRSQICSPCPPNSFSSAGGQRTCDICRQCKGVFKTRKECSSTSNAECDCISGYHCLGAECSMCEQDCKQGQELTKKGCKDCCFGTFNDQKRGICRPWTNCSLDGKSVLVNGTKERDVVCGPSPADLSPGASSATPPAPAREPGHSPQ


What was measured:
[1] = molecular target: T3, extracellular domain of human 4-1BB (amino acid residues 24-186 of SEQ ID NO: 13) (human, UniProt Q07011 24-186); assay: X-ray crystallography of the complex
T3 construct: Used for X-ray crystallography

[2] = molecular target: T1, human OX40; assay: binding assay (FIG. 2), bivalent Fab-like
[3] = molecular target: human CD40 (human, UniProt P25942 21-193); assay: binding assay (FIG. 2), bivalent Fab-like
[4] = molecular target: T4, human His-tagged 4-1BB recombinant protein (human, UniProt Q07011 24-186); assay: binding assay (FIG. 2), bivalent monoparatopic Fab-like
T4 construct: also called human 4-1BB; h4-1BB; not shown: His tag

[5] = molecular target: T4, human His-tagged 4-1BB recombinant …; assay: ELISA binding on 4-1BB-his, bivalent monoparatopic Fab-like constructs
[6] = molecular target: T5, human PD-1 expressed on cells (300.19 pre-B cells, PD-1 NFAT-luc2 Jurkat cells, primary T-cells) (human, UniProt Q15116 25-288); assay: cell-based or functional assay
[7] = molecular target: T6, cynomolgus monkey 4-1BB expressed on 300.19 pre-B cells (cynomolgus monkey, UniProt A9YYE7 24-254); assay: flow cytometry on 300.19 pre-B cells
T6 construct: whole, on cells; also called cy4-1BB; Pre-B cy4-1BB

[8] = molecular target: T7, cynomolgus monkey PD-1 expressed on 300.19 pre-B cells (cynomolgus monkey, UniProt B0LAJ3 25-288); assay: flow cytometry on 300.19 pre-B cells
T7 construct: also called cyPD-1; Pre-B cyPD-1

[9] = molecular target: T5, human PD-1 expressed on cells (300.19 …); assay: flow cytometry on 300.19 pre-B cells
[10] = molecular target: T8, cynomolgus monkey PD-1 (SPR analyte) (cynomolgus monkey, UniProt B0LAJ3 25-170); assay: SPR, KD on cyPD-1 against KD on hPD-1
T8 construct: also called cyPD-1

[11] = molecular target: T5, human PD-1 expressed on cells (300.19 …); assay: flow cytometry on PD-1+ Jurkat T-cells
[12] = molecular target: T2, cynomolgus monkey 4-1BB (SPR analyte); assay: SPR, KD on cy4-1BB against KD on h4-1BB
[13] = molecular target: T6, cynomolgus monkey 4-1BB expressed on …; assay: flow cytometry on 300.19 pre-B cells, cy4-1BB
[14] = molecular target: T7, cynomolgus monkey PD-1 expressed on …; assay: flow cytometry on 300.19 pre-B cells, cyPD-1 against hPD-1
[15] = molecular target: T6, cynomolgus monkey 4-1BB expressed on …; assay: flow cytometry on 300.19 pre-B cells, cy4-1BB against h4-1BB
[16] = molecular target: T9, human PD-1 (SPR analyte) (human, UniProt Q15116 25-167, limits assumed); assay: SPR (Biacore 8K), binder captured on anti-Fc chip, target as analyte, 1:1 model
T9 construct: Soluble analyte in SPR; also called hPD-1

[17] = molecular target: T2, cynomolgus monkey 4-1BB (SPR analyte); assay: as above
[18] = molecular target: T8, cynomolgus monkey PD-1 (SPR analyte); assay: as above
[19] = molecular target: T9, human PD-1 (SPR analyte); assay: as above; remark: listed apart in the source
[20] = molecular target: T6, cynomolgus monkey 4-1BB expressed on …; assay: flow cytometry on 300.19 pre-B cells, cy4-1BB, against Optimized Construct #3

T8 sequence (B0LAJ3 entry or part of it limits assumed): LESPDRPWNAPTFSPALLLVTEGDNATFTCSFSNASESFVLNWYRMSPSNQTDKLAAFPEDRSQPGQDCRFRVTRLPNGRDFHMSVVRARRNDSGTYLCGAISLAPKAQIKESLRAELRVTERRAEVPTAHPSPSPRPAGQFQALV
T7 sequence (B0LAJ3 entry or part of it limits assumed): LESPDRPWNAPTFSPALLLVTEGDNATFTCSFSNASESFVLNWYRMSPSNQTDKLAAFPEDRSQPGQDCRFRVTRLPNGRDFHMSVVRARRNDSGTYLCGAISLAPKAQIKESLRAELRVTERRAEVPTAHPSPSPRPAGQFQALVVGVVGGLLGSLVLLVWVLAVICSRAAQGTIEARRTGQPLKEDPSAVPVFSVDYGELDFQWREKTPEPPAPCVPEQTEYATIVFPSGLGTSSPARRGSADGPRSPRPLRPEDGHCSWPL
T9 sequence (Q15116 25-167 limits assumed): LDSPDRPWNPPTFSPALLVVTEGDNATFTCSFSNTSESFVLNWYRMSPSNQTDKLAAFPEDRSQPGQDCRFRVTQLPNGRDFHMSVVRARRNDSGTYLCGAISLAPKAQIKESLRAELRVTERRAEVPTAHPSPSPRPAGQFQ
T5 sequence (Q15116 25-288 limits assumed): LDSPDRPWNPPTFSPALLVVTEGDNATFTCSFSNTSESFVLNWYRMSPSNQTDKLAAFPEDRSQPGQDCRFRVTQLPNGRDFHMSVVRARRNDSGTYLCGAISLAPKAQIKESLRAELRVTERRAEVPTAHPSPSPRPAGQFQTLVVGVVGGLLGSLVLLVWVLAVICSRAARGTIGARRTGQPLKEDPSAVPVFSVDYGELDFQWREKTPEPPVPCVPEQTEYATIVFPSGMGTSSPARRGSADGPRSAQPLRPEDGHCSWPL
Chain of human CD40 (P25942 21-193 limits assumed): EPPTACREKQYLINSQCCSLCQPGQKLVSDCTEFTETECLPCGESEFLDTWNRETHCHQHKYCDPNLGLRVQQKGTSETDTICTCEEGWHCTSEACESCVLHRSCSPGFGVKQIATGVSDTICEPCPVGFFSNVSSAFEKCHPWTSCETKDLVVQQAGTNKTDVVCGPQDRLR

EC50 value (nM), PD-1 reporter assay [6] [nM]	EC50 [7] [nM]	EC50 [8] [nM]	EC50 [9] [nM]	Ratio KD cyno/human [10] [fold]	EC50 [11] [nM]	Ratio EC50 cy/h [14] [fold]	Ratio EC50 cy/h [15] [fold]	Kd [18] [nM]	Kd [19] [nM]	masking efficacy (masked EC50/naked EC50) [20] [fold]	Binder	further results
											anti-4-1BB clone #2 VHH (VHH) VHH: QVQLQESGGGLVQPGGSLRLSCAASGGLFSINTGGWYRQAPGKQRELVATITHDDRTNYAESVKGRFTLSRDNAKNTVYLQMNSLKPEDTAVYYCRLGSAAIRGYWGQGTQVTVSS	binding result [1]: binds
											anti-4-1BB VHH Clone #2, bivalent monoparatopic Fab-like construct (other, not shown: human CL (lambda) constant domain, tag if any; human IgG1 CH1 domain, HA and 6-His tags) chain 1: QVQLQESGGGLVQPGGSLRLSCAASGGLFSINTGGWYRQAPGKQRELVATITHDDRTNYAESVKGRFTLSRDNAKNTVYLQMNSLKPEDTAVYYCRLGSAAIRGYWGQGTQVTVSS chain 2: QVQLQESGGGLVQPGGSLRLSCAASGGLFSINTGGWYRQAPGKQRELVATITHDDRTNYAESVKGRFTLSRDNAKNTVYLQMNSLKPEDTAVYYCRLGSAAIRGYWGQGTQVTVSS	binding result [2]: no binding; binding result [3]: no binding; binding result [4]: binds
											anti-4-1BB VHH Clone #5, bivalent monoparatopic Fab-like construct (other, not shown: human CL (lambda) constant domain, tag if any; human IgG1 CH1 domain, HA and 6-His tags) chain 1: QVQLQESGGGLVQPGGSLRLSCAASGFTFSDHTMTWVRQAPGKGLEWVSSISSGGSRIIYADSVKGRFTISRDNAKNTLYLQMNNLRPEDTAVYFCARGTRYKMSTSGPGTQVTVSS chain 2: QVQLQESGGGLVQPGGSLRLSCAASGFTFSDHTMTWVRQAPGKGLEWVSSISSGGSRIIYADSVKGRFTISRDNAKNTLYLQMNNLRPEDTAVYFCARGTRYKMSTSGPGTQVTVSS	binding result [2]: no binding; binding result [3]: no binding; EC50 (read off the curve) [5]: ~3 nM
											anti-4-1BB clone #5 VHH (VHH) VHH: QVQLQESGGGLVQPGGSLRLSCAASGFTFSDHTMTWVRQAPGKGLEWVSSISSGGSRIIYADSVKGRFTISRDNAKNTLYLQMNNLRPEDTAVYFCARGTRYKMSTSGPGTQVTVSS	binding result [1]: binds
											anti-4-1BB clone #5a VHH, bivalent monoparatopic Fab-like construct (other, not shown: human CL (lambda) constant domain, tag if any; human IgG1 CH1 domain, HA and 6-His tags) chain 1: QVQLQESGGGWVQPGGSLRLSCAASGFAFRDFTMSWARQAPGERFEWISSINPSGGSQSYLPSVKGRFTISRDNAKNTMFLQMDNLTPEDTAVYFCARGTRYKMSTSGPGTQVTVSS chain 2: QVQLQESGGGWVQPGGSLRLSCAASGFAFRDFTMSWARQAPGERFEWISSINPSGGSQSYLPSVKGRFTISRDNAKNTMFLQMDNLTPEDTAVYFCARGTRYKMSTSGPGTQVTVSS	EC50 (read off the curve) [5]: ~0.5 nM
											anti-4-1BB clone #5d VHH, bivalent monoparatopic Fab-like construct (other, not shown: human CL (lambda) constant domain, tag if any; human IgG1 CH1 domain, HA and 6-His tags) chain 1: QVQLQESGGGLVQPGGSLRLSCVASGFTFANYRMSWVRQAPGKGLEWVSSIKKSGNRTTYSDSVKGRFTISRDNAKNTMFLQMDNLTPEDTAVYFCARGTRYKMSTSGPGTQVTVSS chain 2: QVQLQESGGGLVQPGGSLRLSCVASGFTFANYRMSWVRQAPGKGLEWVSSIKKSGNRTTYSDSVKGRFTISRDNAKNTMFLQMDNLTPEDTAVYFCARGTRYKMSTSGPGTQVTVSS	binding result [5]: binds
1.39	0.91	1.45	1.4	2	0.5	1.04	0.3	14.9	7.29		Optimized Construct #3 (bispecific antibody, also called Optimized Construct #3 (unmasked); naked) heavy: not shown light: EIVLTQSPATLSLSPGERATLSCGASQSVPINFLAWYQQKPGLAPRLLIYEASSRHTGIPDRFSGSGSGTDFTLTISRLEPEDFAVYYCGQYGSSPYTFGQGTKLEIKRTVAAPSVFIFPPSDEQLKSGTASVVCLLNNFYPREAKVQWKVDNALQSGNSQESVTEQDSKDSTYSLSSTLTLSKADYEKHKVYACEVTHQGLSSPVTKSFNRGEC	Ratio KD cyno/human [12]: 1.9 fold; masking efficacy (masked EC50/naked EC50) [13]: 1 fold; Kd [16]: 4.54 nM; Kd [17]: 21.1 nM
2.43	6.24	1.67	1.65	2.3	0.7	0.99	0.07	14.9	6.42	7	MC1 (conditionally-active, masked Optimized Construct #3; MM1 and cleavable linker #1) (bispecific antibody) heavy: not shown light: EIVLTQSPATLSLSPGERATLSCGASQSVPINFLAWYQQKPGLAPRLLIYEASSRHTGIPDRFSGSGSGTDFTLTISRLEPEDFAVYYCGQYGSSPYTFGQGTKLEIKRTVAAPSVFIFPPSDEQLKSGTASVVCLLNNFYPREAKVQWKVDNALQSGNSQESVTEQDSKDSTYSLSSTLTLSKADYEKHKVYACEVTHQGLSSPVTKSFNRGEC	
2.62	5.9	1.4	1.76	2	0.89	0.8	0.23	13.4	6.73	6	MC3 (conditionally-active, masked Optimized Construct #3; MM1 and cleavable linker #2) (bispecific antibody) heavy: not shown light: EIVLTQSPATLSLSPGERATLSCGASQSVPINFLAWYQQKPGLAPRLLIYEASSRHTGIPDRFSGSGSGTDFTLTISRLEPEDFAVYYCGQYGSSPYTFGQGTKLEIKRTVAAPSVFIFPPSDEQLKSGTASVVCLLNNFYPREAKVQWKVDNALQSGNSQESVTEQDSKDSTYSLSSTLTLSKADYEKHKVYACEVTHQGLSSPVTKSFNRGEC	
2.81	9.81	4.8	2.68	2.7	0.72	1.79	1.01	18.3	6.82	11	MC4 (conditionally-active, masked Optimized Construct #3; MM2 and cleavable linker #2) (bispecific antibody) heavy: not shown light: EIVLTQSPATLSLSPGERATLSCGASQSVPINFLAWYQQKPGLAPRLLIYEASSRHTGIPDRFSGSGSGTDFTLTISRLEPEDFAVYYCGQYGSSPYTFGQGTKLEIKRTVAAPSVFIFPPSDEQLKSGTASVVCLLNNFYPREAKVQWKVDNALQSGNSQESVTEQDSKDSTYSLSSTLTLSKADYEKHKVYACEVTHQGLSSPVTKSFNRGEC	
2.54	16.6	1.5	2.97	2.2	0.78	0.51	2.44	17.3	7.73	18	MC2 (conditionally-active, masked Optimized Construct #3; MM2 and cleavable linker #1) (bispecific antibody) heavy: not shown light: EIVLTQSPATLSLSPGERATLSCGASQSVPINFLAWYQQKPGLAPRLLIYEASSRHTGIPDRFSGSGSGTDFTLTISRLEPEDFAVYYCGQYGSSPYTFGQGTKLEIKRTVAAPSVFIFPPSDEQLKSGTASVVCLLNNFYPREAKVQWKVDNALQSGNSQESVTEQDSKDSTYSLSSTLTLSKADYEKHKVYACEVTHQGLSSPVTKSFNRGEC	

From patent publication US20240262923A1 (Sanofi, published 2024)
